Assay results taken from article PMC5440498.

Molecular target: His-MBP-eYFP-PRDM9Cst-ZnF (Mus musculus castaneus (CAST/EiJ, Prdm9 Cst allele)) (UniProt Q96EQ9)
Test: EMSA
Conditions: 2.5 uM protein, 15 nM DNA, 50 ng/ul polydIdC, EMSA (chimeras): 10 mM Tris-HCl pH 7.5, 50 mM KCl, 1 mM DTT, 0.05% NP-40, 50 uM ZnCl2, titration EMSA: low polydIdC plus 0.03% sarcosyl …

Sequence of UniProt Q96EQ9 (Q96EQ9 whole entry): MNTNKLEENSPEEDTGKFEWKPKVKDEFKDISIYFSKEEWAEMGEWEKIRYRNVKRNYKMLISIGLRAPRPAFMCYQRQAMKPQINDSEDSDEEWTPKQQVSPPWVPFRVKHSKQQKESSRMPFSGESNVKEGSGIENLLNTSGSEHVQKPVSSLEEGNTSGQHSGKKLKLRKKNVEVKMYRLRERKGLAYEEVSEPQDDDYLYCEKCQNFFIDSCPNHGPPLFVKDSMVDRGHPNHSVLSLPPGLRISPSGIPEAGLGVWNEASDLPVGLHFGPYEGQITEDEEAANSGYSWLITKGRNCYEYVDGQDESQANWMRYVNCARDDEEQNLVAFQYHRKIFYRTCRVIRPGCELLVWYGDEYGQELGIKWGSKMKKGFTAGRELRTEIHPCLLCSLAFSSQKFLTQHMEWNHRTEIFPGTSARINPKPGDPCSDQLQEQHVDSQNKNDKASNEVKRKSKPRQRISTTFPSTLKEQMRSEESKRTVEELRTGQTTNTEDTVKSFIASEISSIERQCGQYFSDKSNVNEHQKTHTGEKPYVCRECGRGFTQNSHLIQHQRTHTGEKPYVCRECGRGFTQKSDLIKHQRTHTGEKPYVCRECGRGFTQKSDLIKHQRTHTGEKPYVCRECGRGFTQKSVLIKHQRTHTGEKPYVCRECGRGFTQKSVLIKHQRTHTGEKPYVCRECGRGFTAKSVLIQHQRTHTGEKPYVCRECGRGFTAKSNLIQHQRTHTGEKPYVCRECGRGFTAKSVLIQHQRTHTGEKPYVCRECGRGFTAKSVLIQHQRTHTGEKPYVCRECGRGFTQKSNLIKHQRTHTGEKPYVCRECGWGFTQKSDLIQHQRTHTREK

“GTGGGAGGAGATGGTGGGTGAATAGTGTGCAGACTTGGACCCTGCCCTTTCTTTACGCATTCCACTAACCATGGG (double strand) [Hlx1 B6 75 bp (hot)]” gave a binding signal of 100 % bound.
